# Measurements from article doi:10.1101/757856.
# Assays:
# [1] = molecular target: full-length human Neurofibromin (His6-tagged, purified) (human) (UniProt P21359); assay: SAXS and SANS
# [2] = molecular target: full-length human Neurofibromin (His6-tagged, purified) (human) (UniProt P21359); assay: SEC-MALS
# [3] = molecular target: full-length human Neurofibromin (His6-tagged, purified) (human) (UniProt P21359); assay: SEC
# [4] = molecular target: full-length human Neurofibromin (His6-tagged, purified) (human) (UniProt P21359); assay: negative stain electron microscopy
# [5] = molecular target: full-length human Neurofibromin (His6-tagged, purified) (human) (UniProt P21359); assay: AUC
substance,measurement,setting,value
"full-length human Neurofibromin (His6-tagged, purified), P21359-2 1-2818",stoichiometry N,[1],2
same,stoichiometry N,[2],2
same,stoichiometry N,[3],2
same,stoichiometry N,[4],2
same,Kd,[5],< 5 nM
same,stoichiometry N,[5],2
